The supplement of paper PMC12855868

B1: library; numbered along this chain (parent)
chain: MAAAGGARLLRAASAVLGGPAGRWLHHAGSRAGSSGLLRNRGPGGSAEASRSLSVSARARSSSEDKITVHFINRDGETLTTKGKVGDSLLDVVVENNLDIDGFGACEGTLACSTCHLIFEDHIYEKLDAITDEENDMLDLAYGLTDRSRLGCQICLTKSMDNMTVRVPETVADARQSIDVGKTS

Variants of: B1
Test: scaled log2 fold change in cell abundance, elesclomol vs control (0 = silent mean, 1 = nonsense mean) (scaled log2 ratio); higher = higher viability under elesclomol (loss of FDX1 cuproptosis function)
Conditions: glucose 10 mM
Procedure: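 Deep mutational scan of full-length human FDX1: a pooled saturation-mutagenesis ORF library (every residue 2-184 mutated to all 19 amino acids plus stop, and silent codons where available) was expressed by lentivirus in FDX1-knockout ABC1 (14 days) or HEK293T (11 days) cells grown with elesclomol (ES) or DMSO control. Variant abundance came from ORF sequencing. The log2 fold change (ES vs control, mean of duplicates) was centred on the silent-variant mean (0) and scaled to the nonsense-variant mean (1). Higher values mean greater viability under ES, i.e. loss of FDX1 function in cuproptosis.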

[1] = with ABC1 FDX1 KO, elesclomol 5 nM, 14 days
[2] = with HEK293T FDX1 KO, elesclomol 40 nM, 11 days
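Also: variant abundance is its share of total variant reads in each endpoint sample, from next-generation sequencing of the integrated ORF PCR-amplified out of genomic DNA.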

Variant | scaled log2 fold change [1] | scaled log2 fold change [2]
E77K | 0.242 | -0.341
T145K | -0.0518 | -0.472
T145C | -0.124 | -0.351
D99W | -0.0217 | -0.818
A28P | 0.56 | 0.292
L127K | 0.682 | 0.253
Q153I | 0.0471 | -0.458
A141G | -0.119 | 0.016
A141T | 0.135 | 0.788
L9V | 0.286 | -0.433
G29R | -0.244 | -0.0867
G29K | -0.417 | 1.26
I118C | -0.313 | -0.183
C152L | 1.14 | 1.41
C152H | 1.12 | 0.972
G83E | 0.881 | 0.975
D75Y | -0.306 | 
L98Y | 0.000145 | -0.257
R166K | -0.502 | -0.393
R166I | -0.0924 | -0.203
R166H | -0.236 | 
G22V | 0.245 | 
A21P | 0.0803 | 
A21L | 0.235 | 0.118
L10C | -0.592 | 0.0724

Variant | scaled log2 fold change [1] | scaled log2 fold change [2]
D179W | 0.235 | 
D179M | 0.0418 | -0.494
D179K | 0.53 | -0.385
A111I | -0.421 | -0.0909
V55C | 0.313 | 0.374
V55N | -0.28 | 0.815
V55W | 0.0864 | -0.549
K182T | 0.134 | -0.0291
E48H | 0.521 | 0.92
M163S | -0.173 | 0.99
P168H | 0.377 | 0.136
L144W | -0.112 | -0.217
L144N | 0.342 | -0.655
I72C | 0.238 | -0.937
N40P | -0.752 | 0.374
A174D | -0.995 | 0.361
D65N | -0.21 | 0.98
D65C | 0.243 | -0.327
A59L | -0.434 | 0.562
A59M | -0.0959 | -0.108
V85T | -0.279 | -0.55
V85D | 0.12 | -0.189
I154Y | 0.82 | 0.121
I154T | -0.043 | -0.257
E169S | -1.11 | -0.0914

Variant | scaled log2 fold change [1] | scaled log2 fold change [2]
E169Y | -0.0627 | -0.484
D91C | 0.188 | 0.246
D173W | -0.0293 | 
D173C | -0.031 | 0.0714
D173F | 0.306 | -0.0815
R11I | 0.175 | -0.673
R11P | 0.346 | 
P43V | 0.149 | 0.888
E95D | 0.126 | 0.1
G6E | 0.0669 | 
Y124P | 0.511 | 0.253
D128H | 0.277 | 
T164F | 0.0235 | -0.4
T164K | -0.0707 | 0.0715
V93E | 0.231 | -0.85
V93W | 0.155 | 0.488
V93Q | 0.0948 | -0.698
M160Y | 0.274 | 0.713
M160H | -0.251 | 0.0298
D139R | 0.938 | 1.09
D139N | -0.132 | 
R60W | -0.217 | 0.972
E125S | 0.239 | 
E125W | -0.76 | -0.135
E125Q | -0.176 | -0.00485

Variant | scaled log2 fold change [1] | scaled log2 fold change [2]
D146G | -0.311 | 0.974
D146I | -0.109 | 0.0633
K84N | 0.0469 | 0.28
K84T | -0.0915 | -0.906
D132T | -0.0728 | -0.282
D132Y | 0.176 | 1.12
D132Q | 0.014 | 0.0254
E64F | 0.0956 | 
I100C | -0.292 | 0.943
I100H | 0.0888 | -0.835
I100S | 0.183 | 1.01
L110T | 0.401 | 0.383
I123T | 0.223 | 0.679
I123P | 0.506 | -0.674
D101V | 0.24 | -0.613
S148F | 0.404 | 0.537
S148A | -0.395 | 0.0871
G44E | 0.197 | 1.12
G44R | 0.286 | 0.0773
H70S | 0.277 | -0.697
H70W | -0.0809 | -0.922
H70V | 0.191 | -1.13
S63R | 0.598 | -0.598
S63A | 0.227 | 0.763
S63K | 0.173 | -0.352

Variant | scaled log2 fold change [1] | scaled log2 fold change [2]
K82Q | -0.471 | 
K82L | 0.0365 | -0.76
K82G | -0.688 | -0.137
E133F | -0.18 | -0.56
D87W | -0.221 | -0.509
D87A | 0.0673 | 
S88N | 0.582 | 
A15N | -0.0399 | -0.856
A15P | 0.172 | 0.337
A129V | 0.217 | 0.196
A129L | 0.598 | 1.27
C115M | 1.03 | 1.19
G45C | 0.409 | -0.145
G45S | 0.0305 | -0.567
G45A | 0.315 | -0.00746
A12W | 0.171 | 
G102V | 0.298 | -0.174
R175Q | -1.39 | -0.894
R175L | 0.518 | 
R175Y | 0.225 | -0.118
G181S | 0.113 | 0.902
